Here are results for six molecules from patent US20250171562A1 (ALK ABELL, published 2025).

One experiment deals with T1, recombinant human IgE (human, UniProt P01854-1 1-428).
T1 construct: made in-house (ALK); preloaded on immobilised FcεRIα in the displacement ELISA
Put plainly: IgE-FcεRIα displacement ELISA. Summed up: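 Streptavidin-coated plates carried site-specifically biotinylated recombinant human FcεRIα, loaded with recombinant human IgE at 13 ng/ml. sdAbs in a pM–μM series were added for 1 h, and displaced IgE was washed off. Percent displacement was the signal reduction versus the no-sdAb control, giving EC50 and maximal effect.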
For orientation: ELISA stands for enzyme-linked immunosorbent assay.

The next experiment has as its target T2, biotinylated IgE Fc (UniProt P01854-1 104-428, biotinylated).
T2 construct: also called IgE Fc (made in-house ALK, Denmark)
In words: BLI (Octet), IgE Fc on sensor, 1:1 fit. How it is done: The biotinylated IgE Fc (made in-house ALK, Denmark) was immobilised on SAX (High precision streptavidin) sensors (FortéBIO) to max 1 nm. The association (240 s) and dissociation (600 s) were measured for the analytes in a serial dilution (from 10 nM to 0.37 nM). Data were subtracted to blank reference sensors exposed to the same serial analyte dilutions, aligned, and analysed in the Octet Data Analysis HT 11.1 Software (FortéBIO) using a 1:1 fitting model.

The target in experiment [1] is T3, IgE-Fc Cε3-4 (human, UniProt P01854-1 209-428, limits assumed).
T3 construct: domain: Cε3-Cε4; coated at 2 µg/mL in the ELISA; also called IgE-Fc Cε3-Cε4
In words: ELISA, immobilised IgE-Fc Cε3-4. As for the experimental part: (§1) SdAb monomers of interest (table 1) and identified in example 2 were amplified from pNT plasmid by PCR and recloned in pET22b plasmid by SLICE cloning reaction. Thereby, a pelB signal sequence and a C-terminal his/HA tag were added to the sdAbs allowing for secretion into periplasmic space and subsequent purification and detection. SdAbs were expressed in E. coli Rosetta (DE3) cells using 2YT media. Expression was induced in early exponential phase with 0.5 mM IPTG and carried overnight at 20° C.-25° C. Purification of sdAbs from supernatant or supernatant+periplasmic extract was performed by IMAC using HisTrap excel column (Cytiva) as first step and by SEC with a Hiload 16-600 Superdex® 75 pg (Cytiva) column as second step. Size and purity of each sdAbs were evaluated on a 15% acrylamide SDS-PAGE. Then, immunoreactivity of sdAbs against immobilized IgE-Fc Cε2-4 and IgE-Fc Cε3-4 was analysed by ELISA. IgE-Fc were coated at 2 μg/mL overnight in a Nunc MaxiSorp plate (ThermoFisher). After blocking sdAbs were added at a 1:10 dilution in TBS and incubated 3h at room temperature. Detection was performed using a mouse anti-HA antibody (ThermoFisher) and an anti-mouse IgG AP conjugated (Sigma Aldrich).

The target of another experiment is T4, IgE-Fc Cε2-4 (human, UniProt P01854-1 104-428, limits assumed).
T4 construct: domain: Cε2-Cε4; coated at 2 µg/mL in the ELISA; also called IgE-Fc Cε2-Cε4
Put plainly: ELISA, immobilised IgE-Fc. As for the experimental part:
as §1

Experiment [2] has as its target T5, biotinylated IgE: FcεRIα complex (UniProt P01854 104-428; P12319 26-205, biotinylated).
T5 construct: preformed complex used for yeast display titration and deep mutational scanning; also called IgE-Fc/FcεRIα; IgE-Fc Cε2-Cε4/FcεRIα complex
Put plainly: yeast display titration, flow cytometry. Background: In flow cytometry, cells or beads pass a laser one at a time.

Experiment [3] concerns the target T3, IgE-Fc Cε3-4. In words: ELISA, immobilised IgE-Fc. As for the experimental part:
as §1

As a reminder, the Kd is the concentration at which binding is half-saturated. Low readings indicate a tighter complex, high ones a looser complex. By koff is commonly meant a measure of how fast the partners let go of each other. A higher koff goes with a short-lived complex. Usually kon stands for the second-order rate constant of association. Read a low kon as slower complex formation. Broadly, the EC50 is the concentration that produces a half-maximal response.

T3 sequence (P01854 other isoform, or with tags, fused parts or gaps limits assumed): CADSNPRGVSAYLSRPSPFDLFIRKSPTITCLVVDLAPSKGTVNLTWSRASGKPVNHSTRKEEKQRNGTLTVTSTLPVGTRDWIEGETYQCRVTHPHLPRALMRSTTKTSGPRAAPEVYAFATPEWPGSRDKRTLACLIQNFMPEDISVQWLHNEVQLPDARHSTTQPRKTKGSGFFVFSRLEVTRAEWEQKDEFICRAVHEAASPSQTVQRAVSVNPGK
T2 sequence (P01854 other isoform, or with tags, fused parts or gaps): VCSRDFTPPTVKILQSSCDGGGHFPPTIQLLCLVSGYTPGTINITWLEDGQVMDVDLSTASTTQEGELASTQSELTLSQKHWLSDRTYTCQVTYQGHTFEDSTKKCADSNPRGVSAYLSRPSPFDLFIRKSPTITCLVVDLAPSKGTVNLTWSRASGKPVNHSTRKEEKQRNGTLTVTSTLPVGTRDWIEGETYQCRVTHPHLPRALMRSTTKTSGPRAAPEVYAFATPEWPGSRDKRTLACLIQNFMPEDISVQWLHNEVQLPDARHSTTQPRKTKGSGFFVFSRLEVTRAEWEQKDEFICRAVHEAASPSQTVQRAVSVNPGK
T1 sequence (P01854 other isoform, or with tags, fused parts or gaps): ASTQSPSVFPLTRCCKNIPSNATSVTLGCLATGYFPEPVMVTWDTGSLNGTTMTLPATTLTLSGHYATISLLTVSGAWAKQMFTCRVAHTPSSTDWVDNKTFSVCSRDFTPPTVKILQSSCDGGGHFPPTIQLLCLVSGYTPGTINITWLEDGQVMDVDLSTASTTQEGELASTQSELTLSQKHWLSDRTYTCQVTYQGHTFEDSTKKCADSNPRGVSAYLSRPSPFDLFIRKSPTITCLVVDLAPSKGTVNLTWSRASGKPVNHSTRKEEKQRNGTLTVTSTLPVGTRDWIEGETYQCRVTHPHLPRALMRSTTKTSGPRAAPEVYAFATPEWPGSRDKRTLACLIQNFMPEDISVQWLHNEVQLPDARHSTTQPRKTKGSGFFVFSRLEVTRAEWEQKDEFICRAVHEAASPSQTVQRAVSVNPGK
T5 sequence (P12319 26-205, chain 2 of 2): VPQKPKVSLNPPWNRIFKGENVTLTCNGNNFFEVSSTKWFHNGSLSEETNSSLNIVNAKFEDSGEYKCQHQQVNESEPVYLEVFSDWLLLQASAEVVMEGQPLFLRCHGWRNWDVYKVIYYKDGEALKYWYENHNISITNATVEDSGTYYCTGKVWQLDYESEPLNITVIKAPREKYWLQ

B1: sdAb D1 (VHH)
VHH: DVQLQESGGGLVQAGGSLRLSCAASGLTFSRCDMGWFRQAPGKEREFVARISANGASTHYADFVKGRFTISRDNAKNTVYLQMNYLKPEDTAVYICAAARVPVTWQLYDYWGQGTQVTVS
For the molecule B1, the Max effect with recombinant human IgE stood at 0%. In the experiment with biotinylated IgE Fc, this molecule yielded a dissociation constant Kd of 3.2 nM, an off-rate constant (koff) of 0.00045 s⁻¹ and an association rate constant (kon) of 140000 M⁻¹ s⁻¹. Besides, the binding result with IgE-Fc Cε3-4 [1] was “no binding”.

B2: sdAb E4 (VHH)
VHH: DVQLQESGGGLVQPGGSLRLSCAASGFRFSNYAMRWYRQAPGKEREFVARISSTGFITRYTASVRDRFTISRDNDKNMMYLQLNKLTPQDTAHYYCNAESTDYWGQGTQVTVS
Turning to B2, the binding result with IgE-Fc Cε2-4 was “binds”; with IgE-Fc Cε3-4 [1], “no binding”.

B3: sdAb B3 (VHH)
VHH: DVQLQESGGGLVQAGGSLRLSCAASGFIFRLAGMSWVRQAPGKGFEWVSGITMDGSTTNYADSVKGRFTISRDNSKNRLYLQMNSLKPEDTAVYYCARGAKGGYNDPRGQGTQVTVS
Turning to B3, the Max effect in the experiment with recombinant human IgE worked out at 0%. Further, in the experiment with biotinylated IgE Fc, the dissociation constant Kd came out at 0.28 nM, the off-rate (koff) amounted to 0.00025 s⁻¹ and the kon amounted to 880000 M⁻¹ s⁻¹. Further, the binding result with IgE-Fc Cε3-4 [1] is “no binding”.

B4: sdAb A1 (VHH)
VHH: EVQLLESGGGLVQPGGSLRLSCAASGFTFGNYDMAWVRQAPGKRPEWVSSIDTGGDITHYADSVKGRFTISRDNAKNTLYLQMNSLRPEDTAVYWCATDEEYALGPNEFDYYGQGTLVTVSS
notes: also called sdAb 026; IGE026
Turning to B4, in the experiment with recombinant human IgE, the EC50 was determined as 0.8 µM and the Max effect is above 95%. In the experiment with biotinylated IgE Fc, the equilibrium dissociation constant (Kd) turned out to be 0.19 nM, the koff amounted to 0.0002 s⁻¹ and the kon worked out at 1e+06 M⁻¹ s⁻¹. The “apparent Kd (pooled screen)” value in experiment [2] amounted to 0.345 nM.

B5: sdAb D2 (VHH)
VHH: DVQLQESGGGLVEAGGSLRLSCVASGRTFSGWSMGWFRQAPGKEREFVAAISWVGSWIGGTVYSNSVKGRFTISRDNARTTVYLQMNSLKPEDTAVYFCAAANSETPRIFASEYDYWGQGTQVTVS
Take B5: in the experiment with recombinant human IgE, the concentration giving a half-maximal response (EC50) is 10 µM and the Max effect stood at 50%. In the experiment with biotinylated IgE Fc, the Kd worked out at 81 nM, the off-rate (koff) is 0.02 s⁻¹ and the on-rate constant (kon) worked out at 240000 M⁻¹ s⁻¹. The binding result with IgE-Fc Cε3-4 [1] was “no binding”.

B6: sdAb G1 (VHH)
VHH: DVQLQESGGGLVQAGGSLRLSCAASGFIVSDNVMSWYRQAPGKQRDMVATIMLNGDTAHADSVKGRFTISRDHAKNTVYLQMNSLKPEDTAVYYCNARDSMLEPGRGAWGQGTLVTVS
As to B6, the binding result with IgE-Fc Cε3-4 [3] and with IgE-Fc Cε2-4 was “binds” throughout.
